According to paper PMC4660058:

What was measured:
[1] = target: CP-capped actin filament barbed end (BC) (rabbit | not stated) (UniProt P68135); assay: microfluidics-assisted single-filament fluorescence microscopy (kinetics of elongation changes); set-up #1: CP-capped barbed ends (BC) exposed to formin without PA for T_(expo) (BC+F→BCF), then PA alone (constants 'from BCF'); k′+F from a fit, not measured directly; F-buffer pH 7.8, 50 mM KCl, room temperature
[2] = target: CP-capped actin filament barbed end (BC) (rabbit | not stated) (UniProt P68135); assay: microfluidics-assisted single-filament fluorescence microscopy (kinetics of elongation changes); set-up #1: formin-bound barbed ends (BF) exposed to CP + PA (BF+C→BFC), then PA alone (constants 'from BFC'); unlabelled formin; F-buffer pH 7.8, 50 mM KCl, room temperature
[3] = target: actin filament free barbed end (B) (rabbit) (UniProt P68135); assay: microfluidics-assisted single-filament fluorescence microscopy (kinetics of elongation changes); set-up #1: filaments from surface-anchored spectrin–actin seeds, free barbed ends exposed to flows of CP or formin with profilin-actin (1 μM actin, 4 μM profilin); off-rates in PA alone; F-buffer pH 7.8, 50 mM KCl, room temperature; KD from the rate constants
[4] = target: CP-capped actin filament barbed end (BC) (rabbit | not stated) (UniProt P68135); assay: microfluidics-assisted single-filament fluorescence microscopy (kinetics of elongation changes); set-up #2: biotin-SNAP-mDia1 anchored on neutravidin coverslip, insertional barbed-end assembly; exposed to CP + unlabelled PA, then PA alone; detachment = BFC→BC+F, resumed growth = BFC→BF+C; F-buffer pH 7.8, 50 mM KCl, room temperature

Substance	koff [1] [s⁻¹]	kon [1] [M⁻¹ s⁻¹]	Kd [2] [nM]	koff [2] [s⁻¹]	kon [3] [M⁻¹ s⁻¹]	Kd [4] [nM]
FH1–FH2–DAD domain of human formin mDia1 (unlabelled) (from UniProt O60610 583-1272) (domain or fragment)	0.0062	1.6e+06	3 to 4	0.0042		
GST–FH1(8P)–FH2–C of formin FMNL2 (from UniProt Q96PY5-3 1-1092) (domain or fragment)	0.0094	115000			1.54e+06	
biotinylated SNAP-mDia1(FH1–FH2–DAD)-His (from UniProt O60610 1-1272) (domain or fragment)						4
